Experimental findings from patent publication US20260029420A1, “ANTI-CB2 ANTIBODIES AND THEIR USE IN A FLOW CYTOMETRY ASSAY TO MEASURE CELL SURFACE CB2 EXPRESSION” (Hoffmann-La Roche Inc., priority 2022, published 2026) are described below.

Common to all, as to type: binding
Test [1] concerns the target T1, CHODukx CRE hCB1 Cl.20 (Homo sapiens, UniProt P21554).
T1 construct: expressed in transfected cells
Kind of test: Immunoprecipitation from whole cell lysates. To be noted: CHODukx CRE hCB1 Cl.20 lysate. Also noted: key: “−” no signal; “+”-“+++++” signal intensity; “+”-“+++++” signal intensity; “+”-“+++++” signal intensity; “+”-“+++++” signal intensity; “+”-“+++++” signal intensity. On the procedure:
(§1) The positive clones (Table 1) were further characterized by immunofluorescence (IF; Table 2), Western Blot (Table 3, 1) and Immune precipitation (Table 4, 2) on full length hCB2, hCB1, mCB2 stable-transfected CHO-cell lines in addition to the 2 pANITA constructs.
(§2) For immunoprecipitation (IP), whole cell lysates were incubated with the respective antibodies. IP was performed according to established protocols and subsequent western blot as described herein above.

Test [2] concerns the target T2, CHO-A2 mCB2 (Mus musculus, UniProt P47936).
T2 construct: expressed in transfected cells
The test can be described thus: Immunoprecipitation from whole cell lysates. Set-up: key: “−” no signal; “+”-“+++++” signal intensity; “+”-“+++++” signal intensity; “+”-“+++++” signal intensity; “+”-“+++++” signal intensity; “+”-“+++++” signal intensity. To be noted: CHO-A2 mCB2 lysate. As for the experimental part: as §1, §2

Test [3] deals with T1, CHODukx CRE hCB1 Cl.20. Kind of test: Immunofluorescence on methanol-fixed transfected cells. Also noted: key to immunofluorescence signal intensity: “−” no fluorescence detected; “+”-“++++” intensity of fluorescent signal; “+”-“++++” intensity of fluorescent signal; “+”-“++++” intensity of fluorescent signal; “+”-“++++” intensity of fluorescent signal. As for the experimental part:
as §1
(§3) For IF analysis, methanol-fixed cells were incubated for 20 min in a humid chamber at 37° C. with the respective hCB2 and mCB2 clones. After rinsing twice and washing for 15 min in PBS, 125 μg/ml FITC-conjugated […] anti-mouse IgG antibodies (RAM/IgG (H+L)/FITC, Nordic
(§4) Immunological Laboratories) diluted in PBS was added and incubated for 20 min in a humid chamber at 37° C. Cells were rinsed twice and washed for 15 min in PBS, mounted with mounting solution (50% PBS 50% glycerol) and covered with a coverslip. Staining was assessed by fluorescence microscopy on a Leica CTR500 fluorescence microscope and a Leica DFC300 FX digital camera.

Test [4] has as its target T2, CHO-A2 mCB2. The description is as above. Set-up: key to immunofluorescence signal intensity: “−” no fluorescence detected; “+”-“++++” intensity of fluorescent signal; “+”-“++++” intensity of fluorescent signal; “+”-“++++” intensity of fluorescent signal; “+”-“++++” intensity of fluorescent signal. On the procedure:
as §1, §3, §4

In test [5] the target is T3, CHODukx CRE hCB2 Cl.90 (Homo sapiens, UniProt P34972).
T3 construct: expressed in transfected cells
The description is as above. Also noted: key to immunofluorescence signal intensity: “−” no fluorescence detected; “+”-“++++” intensity of fluorescent signal; “+”-“++++” intensity of fluorescent signal; “+”-“++++” intensity of fluorescent signal; “+”-“++++” intensity of fluorescent signal. As for the experimental part: as §1, §3, §4

In test [6] the target is T4, CHO-DUKX_HOMSA_CNR2_Clone_90_CRE-Luc cells transfected with hCB2 (Homo sapiens, UniProt P34972).
T4 construct: expressed in transfected cells
The test can be described thus: Flow cytometry on CHO-DUKX cells. The following applies: transfected vs parental untransfected CHO cells. From the text:
(§5) FIG. 4: Flow cytometric analysis of hCB2 antibody 1/622 in CHO-DUKX parental and CHO-DUKX_HOMSA_CNR2_Clone_90_CRE-Luc cells transfected with hCB2. For detection an F(ab)2 goat-anti Mouse IgG3 PE antibody was used. The anti-human CB2 antibody 1/622 detects the CB2 in the CHO cells transfected with hCB2 with a signal to background ratio of 10, the CHO-DUKX parental cells are negative.
A general note: Flow cytometry measures light scatter and fluorescence of single cells or particles in a stream.

A further test deals with CHO-DUKX parental cells. Kind of test: Flow cytometry on CHO-DUKX cells.
Text: as §5

Test [7] has as its target T3, CHODukx CRE hCB2 Cl.90. Kind of test: Immunoprecipitation from whole cell lysates. Set-up: key: “−” no signal; “+”-“++++” signal intensity; “+”-“++++” signal intensity; “+”-“++++” signal intensity; “+”-“++++” signal intensity. To be noted: CHODukx CRE hCB2 Cl.90 lysate. On the procedure:
as §1, §2

In test [8] the target is T1, CHODukx CRE hCB1 Cl.20. The test can be described thus: Western blot of cell lysates. Also noted: key to Western Blot signal intensity: “−” no signal; “+”-“+++++” signal intensity; “+”-“+++++” signal intensity; “+”-“+++++” signal intensity; “+”-“+++++” signal intensity; “+”-“+++++” signal intensity. On the procedure:
as §1
For Western blot analysis, cells were collected using enzyme free dissociation buffer (Cell dissociation buffer enzyme-free Hanks'-based, Gibco), and washed two times with PBS. To prepare cell lysate, 10^6 cells were lysed with 0.1 ml of lysis buffer (1% NP40, 10% glycerol, 2 mM EDTA, 137 mM NaCl, 20 mM TrisHCl, pH8, Protease Inhibitors) for 10 min on ice. The lysate was cleared by centrifugation at 20′000 g for 5 min. For SDS-PAGE cell lysate was resolved on precast 4-12% gradient gels (NuPAGE® Novex 4-12% Bis-Tris Gel, Invitrogen) with MES running buffer according to the manufacturer's directions. The separation of proteins was visualized by Colloidal Blue staining. The proteins were electrophoretically transferred to nitrocellulose membrane using a dry-blotting system (iBlot, Invitrogen). After blocking the membrane for 16 h in blocking buffer (5% Milk in PBS) at 4° C., specific proteins were detected with appropriate dilutions of mAbs in blocking buffer for 1 h at approximately 20° C. […]
Background: Immunoblotting shows a protein as a band on a membrane.

For a further test, the target named is T5, pANITA3.1 hCB2 (JB175) (Homo sapiens, UniProt P34972).
T5 construct: expressed in transfected cells; host or cells: HEK293
The test can be described thus: Immunoprecipitation from whole cell lysates. Also noted: key to Immunoprecipitation signal intensity: “−” no signal; “+”-“++++” signal intensity; “+”-“++++” signal intensity; “+”-“++++” signal intensity; “+”-“++++” signal intensity. On the procedure: as §1, §2

T1 sequence (P21554 whole entry): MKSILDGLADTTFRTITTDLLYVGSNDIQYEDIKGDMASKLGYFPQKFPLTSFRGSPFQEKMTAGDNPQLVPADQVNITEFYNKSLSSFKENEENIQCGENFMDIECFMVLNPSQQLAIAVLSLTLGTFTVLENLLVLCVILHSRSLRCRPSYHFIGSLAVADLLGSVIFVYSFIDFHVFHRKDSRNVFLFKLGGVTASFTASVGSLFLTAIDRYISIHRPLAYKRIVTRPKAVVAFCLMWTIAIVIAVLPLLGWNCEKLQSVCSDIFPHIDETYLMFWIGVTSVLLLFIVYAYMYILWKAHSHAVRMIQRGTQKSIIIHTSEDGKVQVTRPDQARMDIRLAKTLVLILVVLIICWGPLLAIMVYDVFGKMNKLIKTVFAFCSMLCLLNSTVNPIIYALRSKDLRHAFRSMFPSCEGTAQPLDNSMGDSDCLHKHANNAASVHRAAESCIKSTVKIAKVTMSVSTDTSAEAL
T2 sequence (P47936 whole entry): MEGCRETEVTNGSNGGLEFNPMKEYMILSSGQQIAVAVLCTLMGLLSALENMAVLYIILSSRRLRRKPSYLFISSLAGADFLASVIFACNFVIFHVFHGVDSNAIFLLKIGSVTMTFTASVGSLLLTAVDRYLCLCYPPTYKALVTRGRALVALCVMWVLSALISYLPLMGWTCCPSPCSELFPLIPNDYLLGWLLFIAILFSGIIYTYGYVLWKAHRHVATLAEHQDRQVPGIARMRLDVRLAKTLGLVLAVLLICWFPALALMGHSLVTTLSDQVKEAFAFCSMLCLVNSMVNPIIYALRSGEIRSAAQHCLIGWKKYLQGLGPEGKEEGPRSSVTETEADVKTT
T3 sequence (P34972 whole entry): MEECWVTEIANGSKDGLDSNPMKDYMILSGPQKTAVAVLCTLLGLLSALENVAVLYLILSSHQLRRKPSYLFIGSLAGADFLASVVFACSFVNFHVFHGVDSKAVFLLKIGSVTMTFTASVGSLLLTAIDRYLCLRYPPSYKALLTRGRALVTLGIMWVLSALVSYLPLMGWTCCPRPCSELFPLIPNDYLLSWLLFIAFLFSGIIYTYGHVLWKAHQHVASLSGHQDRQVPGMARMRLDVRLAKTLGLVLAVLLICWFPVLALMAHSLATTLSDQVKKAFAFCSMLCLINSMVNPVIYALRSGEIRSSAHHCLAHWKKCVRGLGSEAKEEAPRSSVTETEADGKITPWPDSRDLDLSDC
T5 sequence (P34972 with tags, fused parts or gaps): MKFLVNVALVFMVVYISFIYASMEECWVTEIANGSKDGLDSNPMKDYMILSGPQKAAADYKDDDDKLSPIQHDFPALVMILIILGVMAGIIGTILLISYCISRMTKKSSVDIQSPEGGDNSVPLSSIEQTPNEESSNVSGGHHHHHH
T4 sequence (P34972 whole entry): as the sequence (P34972 whole entry) above

B1: hCB2-1/622: murine IgG3 monoclonal anti-human CB2 antibody, VH SEQ ID NO: 1, VL SEQ ID NO: 2, HC SEQ ID NO: 3, LC SEQ ID NO: 4 (antibody)
heavy: EVQLQQSGPELVKPGASVKISCKTSGYTFTEYTMHWVRQSHGKSLEWIGGIDRYNGDTYYNQKFKDKATLTVDRSSSTAYMELRSLTSEDSAVYFCARNGAMDYWGQGISVTVSSATTTAPSVYPLVPGCSDTSGSSVTLGCLVKGYFPEPVTVKWNYGALSSGVRTVSSVLQSGFYSLSSLVTVPSSTWPSQTVICNVAHPASKTELIKRIEPRIPKPSTPPGSSCPPGNILGGPSVFIFPPKPKDALMISLTPKVTCVVVDVSEDDPDVHVSWFVDNKEVHTAWTQPREAQYNSTFRVVSALPIQHQDWMRGKEFKCKVNNKALPAPIERTISKPKGRAQTPQVYTIPPPREQMSKKKVSLTCLVTNFFSEAISVEWERNGELEQDYKNTPPILDSDGTYFLYSKLTVDTDSWLQGEIFTCSVVHEALHNHHTQKNLSRSPGK
light: DVVMTQTPLSLPVSLGDQASISCRSSQSLVHSNGNTYLHWFLQKPGQSPKLLIYKVSIRFSGVPDRFSGSGSGTDFTLKISRVEAEDLGVYFCSQSTHVPPLTFGAGTKLELKRADAAPTVSIFPPSSEQLTSGGASVVCFLNNFYPKDINVKWKIDGSERQNGVLNSWTDQDSKDSTYSMSSTLTLTKDEYERHNSYTCEATHKTSTSPIVKSFNRNEC
B1: the Immunoprecipitation signal intensity result is given as “−” with CHODukx CRE hCB1 Cl.20 [1], “−” with CHO-A2 mCB2 [2], “+” in the test with CHODukx CRE hCB2 Cl.90 [7] and “++++” with pANITA3.1 hCB2 (JB175) (pANITA3.1 hCB2 (JB175) lysate). For the same molecule, the immunofluorescence signal intensity entry is “−” with CHODukx CRE hCB1 Cl.20 [3] (CHODukx CRE hCB1 Cl.20 cells), “−” with CHO-A2 mCB2 [4] (CHO-A2 mCB2 cells) and “+++” with CHODukx CRE hCB2 Cl.90 [5] (CHODukx CRE hCB2 Cl.90 cells). In addition, the “immunofluorescence staining” value with CHODukx CRE hCB1 Cl.20 [3] (cells expressing human CB1) was “no staining”; with CHO-A2 mCB2 [4] (cells expressing mouse CB2) it was “no staining”; in the test with CHODukx CRE hCB2 Cl.90 [5] (the two cell lines expressing human CB2) it was “high fluorescent signal intensities”. Further, in [6], the “signal to noise ratio for detection of human CB2” value is reported as “good signal to noise ratio”. In addition, the “flow cytometric detection of CB2” value in the test on CHO-DUKX parental cells is “negative”. Moreover, the “Western Blot signal intensity” value in the test with CHODukx CRE hCB1 Cl.20 [8] (CHODukx CRE hCB1 Cl.20 lysate) is listed as “−”. For the same molecule, the “Western blot detection” value in the test with CHODukx CRE hCB1 Cl.20 [8] (hCB1) was “no mCB2, hCB1 or rat GIPR was detected”. In the test with pANITA3.1 hCB2 (JB175) (hCB2), the “immunoprecipitation binding” value was “specifically binds”.
